In patent US12077763B2, “RNA-based control of powdery mildew” (Greenlight Biosciences, Inc., priority 2021, dated 2024):

B1: GS1817: dsRNA trigger SEQ ID NO 139; gene target Cell division control protein 48 (nucleic acid)
DNA: GCTTCGCGAAAGTAAGGTGCAAGGAAAACATCAAAGAGGGAACCAGTAAGGCCTTCAACAGTATCTGCGATAGGAAGAACTGCGATACGTTTGGCGTATTTTATATCAGGACATGGATGTACTGTAACAATATCACCATGTTTAACCCTAAGGTTGTGTCGGACAACACGATTCATACGAGCACTCCCGTCATCTAAATCATCATCTGCGAGTACAATTAAAACAGTATCCTTTCGCTTCTTCCCCTTAACTAGGACAGTATCTCCACGAAAAAGCTGCAAAGTTTCCATGGTATTATTTGACAGTGCAATAACAGAGTTATCATCGTTGATGGCATCTGTTACAATTAAGGAATTTGGCTTTTTCTTCTTTTTTAAAATAGCAGTCGCAGTAGCATCAATCGTCTTTTGTTCAGCGCCAGAGGCATCCTCAAGTTTAACTGTTTTTTTACGAGTAGCATTGTCTTCAGACATAGTTGTGTAATAAAAGTTAAGAGGGCGTAATTTCCTAGAAAGAATATATCTACTATTAATTTATTGAGATCTTGGAATGAAGGTTTATCCGATAAAATCTGTAAATGATGGAGCTAATCTGAAG
B2: GS3937 (nucleic acid)
sense: CAUCUCAACGACUUUGUAGAAUAAAUCAUAGUGAGAUACAGGACUGUGUAGAAAUGCCUCACCACAACAUAAAGAUAAGGCAAUUAAAUUAACUAGAUUGUCAAUCAAAAUAUCAAUAUUUUUUAAGCCCCUCAAGUCUGAUGUGUAUGUGGUGAGAAACCGAACAAGAGAAAGCAGUGAUCUAUAUAGUUCAGACCAGUGAUAUUUCAAUCGUGUCCGUGACCGAGAUAGGUAUGAUAAUAUACUAUAAAUGAUACCAAUGCAAAGAAUAUAUAAAUCAACAUCCAGUCGUCGUCUUAGAUUGUGAUUGAUUCCAUCAAGCAUCGCAUCAAGAAGAAUAGCAGCAAUCGAUCUAUCUCCAUGAACAUAAGGAAGGUACGGAGAUUUUUGUCGACAUA
antisense: UAUGUCGACAAAAAUCUCCGUACCUUCCUUAUGUUCAUGGAGAUAGAUCGAUUGCUGCUAUUCUUCUUGAUGCGAUGCUUGAUGGAAUCAAUCACAAUCUAAGACGACGACUGGAUGUUGAUUUAUAUAUUCUUUGCAUUGGUAUCAUUUAUAGUAUAUUAUCAUACCUAUCUCGGUCACGGACACGAUUGAAAUAUCACUGGUCUGAACUAUAUAGAUCACUGCUUUCUCUUGUUCGGUUUCUCACCACAUACACAUCAGACUUGAGGGGCUUAAAAAAUAUUGAUAUUUUGAUUGACAAUCUAGUUAAUUUAAUUGCCUUAUCUUUAUGUUGUGGUGAGGCAUUUCUACACAGUCCUGUAUCUCACUAUGAUUUAUUCUACAAAGUCGUUGAGAUG
B3: GS3935 (nucleic acid)
sense: CACCGCAGGAAACAACACGAGUAAAAUCAUUUUCUUCAACAACAUCUUCUGCAGCAAAAAAAUUUUCUCGUGCACUCUUAUGGCGGUCAAUUUGUAGAGAUUGCUCAUCGAAGACAAUCUGACCAUCAACGAUGCGAAUUUUAGGACCAACCGGAGGAGCAGACGGCGGUGCGAUUUGGCUAUUUAAACUUGGCUCAGUCUUUCUACUUUCAUUUAGGGUAUAAUUGUCACCACUUUUUCCAUCUAUAUAAUCUUCAAGUUCAGGGUUAUCUCGCUUCAUCCUAGCUUUGAUAGCAUUUUGUUUCAUUCGUGCAAGUCGUCCCAUUAUCUCAUCGUGGUUUCUAGACUUUUUACCAAUACGAAGAUCAUGACAUAAGUCUUGCAUGGUAAUAACAGAA
antisense: UUCUGUUAUUACCAUGCAAGACUUAUGUCAUGAUCUUCGUAUUGGUAAAAAGUCUAGAAACCACGAUGAGAUAAUGGGACGACUUGCACGAAUGAAACAAAAUGCUAUCAAAGCUAGGAUGAAGCGAGAUAACCCUGAACUUGAAGAUUAUAUAGAUGGAAAAAGUGGUGACAAUUAUACCCUAAAUGAAAGUAGAAAGACUGAGCCAAGUUUAAAUAGCCAAAUCGCACCGCCGUCUGCUCCUCCGGUUGGUCCUAAAAUUCGCAUCGUUGAUGGUCAGAUUGUCUUCGAUGAGCAAUCUCUACAAAUUGACCGCCAUAAGAGUGCACGAGAAAAUUUUUUUGCUGCAGAAGAUGUUGUUGAAGAAAAUGAUUUUACUCGUGUUGUUUCCUGCGGUG
B4: GS3931 (nucleic acid)
sense: AUCAAUUUUUCAUUCUCCCUAAUAGAUUUGAUAUCCCGUUCUUUGAGAUAACUUAAUUCCUCUUUUAUGUCUUUUAGCUUUUUUUCUGCAGUCGCAAUUAGAGUCUCUUUUUCAGCAAUUUGAUCUUGAAGCUCAUUUUCUCUUUUUAAAAACUCUUCACGAUCAUCUUUUUCUAAUGCAAUUGGCGUAGAUGAGCGAUCUAAUAACGUUGAAGCUUCCGAUCUAGAUUCUACCUGCAGCCUAGAAGGAGUUGCAGGUCUUGGUGUUUUUAUUUUAGAAAGAUUAGCAGUAUCUAAAGGUGGUACCCAUUUUUCUUUAGGCACACUAUCUCCAGACCUCCACUGCUGAACUUCUGCAUCAAGUGUCUGUACAUAUUGUUCAAAUGUAGUAA
antisense: UUACUACAUUUGAACAAUAUGUACAGACACUUGAUGCAGAAGUUCAGCAGUGGAGGUCUGGAGAUAGUGUGCCUAAAGAAAAAUGGGUACCACCUUUAGAUACUGCUAAUCUUUCUAAAAUAAAAACACCAAGACCUGCAACUCCUUCUAGGCUGCAGGUAGAAUCUAGAUCGGAAGCUUCAACGUUAUUAGAUCGCUCAUCUACGCCAAUUGCAUUAGAAAAAGAUGAUCGUGAAGAGUUUUUAAAAAGAGAAAAUGAGCUUCAAGAUCAAAUUGCUGAAAAAGAGACUCUAAUUGCGACUGCAGAAAAAAAGCUAAAAGACAUAAAAGAGGAAUUAAGUUAUCUCAAAGAACGGGAUAUCAAAUCUAUUAGGGAGAAUGAAAAAUUGAU
B5: GS3938 (nucleic acid)
sense: AUCGGCAAAAGUAAUGCUUCAAAAGCUGAUACAAAGACUAUAUGGAGAGGAGCUUUAAAUAUAUUGGAAGACUUAAAAAACGCAGAAAAGGAUUGGAGAUUUGGGAAAACUGAAAUUGUAGGGUUUGACAUUGAGAGAGAGAACCAAAUAGAUUGCCCUCAAAGUGAUAUGGAAAUCUUGCAGCAACAGUCAAGCAACACUGCAAGCUAUGCCAAUAAUUUCACCUCCGACCUUACACCUGAAGGCCGCCCAACAGGAAAAGUUACGAAAGCUCGAUUUCAGUCUGCAGAAAUAGGAAAAUGUACUCAAGUUGGAUGGGGAGUCGUACACCUAUACCGUGAUGAUAACGAUGCUGUUAAUUUUGAUACCCGAACUACUACAUACGAUGGAAA
antisense: UUUCCAUCGUAUGUAGUAGUUCGGGUAUCAAAAUUAACAGCAUCGUUAUCAUCACGGUAUAGGUGUACGACUCCCCAUCCAACUUGAGUACAUUUUCCUAUUUCUGCAGACUGAAAUCGAGCUUUCGUAACUUUUCCUGUUGGGCGGCCUUCAGGUGUAAGGUCGGAGGUGAAAUUAUUGGCAUAGCUUGCAGUGUUGCUUGACUGUUGCUGCAAGAUUUCCAUAUCACUUUGAGGGCAAUCUAUUUGGUUCUCUCUCUCAAUGUCAAACCCUACAAUUUCAGUUUUCCCAAAUCUCCAAUCCUUUUCUGCGUUUUUUAAGUCUUCCAAUAUAUUUAAAGCUCCUCUCCAUAUAGUCUUUGUAUCAGCUUUUGAAGCAUUACUUUUGCCGAU
B6: GS3930 (nucleic acid)
sense: CUAACGAGUGAUCGAAGCCCAUCUGAAAGAUUUUGAGUUAUGCUUUUACCAACUAUUACAGUAUCUGAGCUCAGUCGCGAGAGUAAAUCCCCGACUCGAUUGGCGUCAAAGAACUCGGCAUCUUGUACAAAUGUCCUUCGAAAUAAUUUUGAUCGGAGUCUUGAAAUUACUCUUUCUCCAACUAUUCUCAGAAUUAAUAUCCGUCCAUAAUUAGCUACAGCACCUAUUGAUAGUAUAAGCCCAAGAGCCCCGAAAAAUUGUUGAUUAUUAAGUUCAAAAAGUGUGUUUCCUUCUGAGUUUUUGGUUGCAAGGUCUAAUAUUUUACCGAUUGAAAAAGGAAUUGCCAUUGAUAUGGAUGAAGAUACUAAUAAAAAGAAAAAUGCCAAACUGAGC
antisense: GCUCAGUUUGGCAUUUUUCUUUUUAUUAGUAUCUUCAUCCAUAUCAAUGGCAAUUCCUUUUUCAAUCGGUAAAAUAUUAGACCUUGCAACCAAAAACUCAGAAGGAAACACACUUUUUGAACUUAAUAAUCAACAAUUUUUCGGGGCUCUUGGGCUUAUACUAUCAAUAGGUGCUGUAGCUAAUUAUGGACGGAUAUUAAUUCUGAGAAUAGUUGGAGAAAGAGUAAUUUCAAGACUCCGAUCAAAAUUAUUUCGAAGGACAUUUGUACAAGAUGCCGAGUUCUUUGACGCCAAUCGAGUCGGGGAUUUACUCUCGCGACUGAGCUCAGAUACUGUAAUAGUUGGUAAAAGCAUAACUCAAAAUCUUUCAGAUGGGCUUCGAUCACUCGUUAG
B7: GS3934 (nucleic acid)
sense: UCUUCUUCAGUGGUAUGUGCAAGAGAUUGACGUCUAGAUGAACGUGUUGAUGGUGCAGUUACUACAGCAGUAGCUUCAACCGAUUUUCGACUCACUUUUCGCUUGUUUGAAACAGACGAAACUAAAGAAUUUGUGGAACUAGAUUUAGGUUUACGAGUAGUGGACCGUCCCUUACUUGUAUAGACUCUCUUUUUAAGUGUAGAAUCAUUCAAUGGCUGUAAAAAUGAAACUAAAUCUCCACAAAUAGUAGUAGGUGCAUCUGCUGAUAAUGCUUCAGGUAAAUCUAAUCUAGAUCCAAUUUCUGAUGUACUAAGUGAUAUAUUUGAAGAGGUAAUAUUACUUUGUAUUUCAGGUGUCUUUGAGGUCAUCUUUGAUGAAAUUACCAUUAGUUUUU
antisense: AAAAACUAAUGGUAAUUUCAUCAAAGAUGACCUCAAAGACACCUGAAAUACAAAGUAAUAUUACCUCUUCAAAUAUAUCACUUAGUACAUCAGAAAUUGGAUCUAGAUUAGAUUUACCUGAAGCAUUAUCAGCAGAUGCACCUACUACUAUUUGUGGAGAUUUAGUUUCAUUUUUACAGCCAUUGAAUGAUUCUACACUUAAAAAGAGAGUCUAUACAAGUAAGGGACGGUCCACUACUCGUAAACCUAAAUCUAGUUCCACAAAUUCUUUAGUUUCGUCUGUUUCAAACAAGCGAAAAGUGAGUCGAAAAUCGGUUGAAGCUACUGCUGUAGUAACUGCACCAUCAACACGUUCAUCUAGACGUCAAUCUCUUGCACAUACCACUGAAGAAGA

system: E. necator; assay: Leaf disc assay, dry inoculum (settling tower), decrease in disease severity / hyphal growth (Example 2); details: decrease in disease severity (hyphal growth) relative to untreated control; time point 1 (untreated control hyphal growth ≥50%); value ± SE

Compared with B1, B2 is lower in “% decrease =/− SE TP1” value: 52 ± 2% for the first, 12 ± 5% for the second.

Compared with B3, B4 is higher in “% decrease =/− SE TP1” value: 1 ± 5% for the first, 14 ± 4% for the second.

B5 and B6 are within error of each other in “% decrease =/− SE TP1” value: 3 ± 5% for the first, 10 ± 4% for the second.

In the case of B7, the “% decrease =/− SE TP1” value is reported as 31 ± 5%.

same assay, conditions: decrease in disease severity (hyphal growth) relative to untreated control; time point 2; value ± SE

Compared with B1, B7 is lower in “% decrease =/− SE TP2” value: 49 ± 6% for the first, 17 ± 6% for the second.
